Measurements from article PMC4894398, “Efficient Demyristoylase Activity of SIRT2 Revealed by Kinetic and Structural Studies” (Scientific Reports, 2015).
One block for each molecule: values may come before it. No end group written: not given here.

What was measured:
[1] = molecular target: SIRT2 (residues 38–356 of the full-length human SIRT2) (human) (UniProt Q8IXJ6)
[2] = molecular target: T1, SIRT2 (residues 38–356 of the full-length human SIRT2) (human, UniProt Q8IXJ6 38-356); experiment: crystal structure; 10 mg/mL SIRT2 in 20 mM Tris, 50 mM NaCl, pH 7.5 preincubated on ice with 10 mM BHJH-TM1 for about 1 h; hanging drop, 25% PEG 3350, 0.1 M Hepes pH 7.5; 2.1 Å, two subunits in the asymmetric unit; details: both partners purified
T1 construct: NAD-dependent protein deacylase sirtuin-2 (SIRT2), human, residues 38-356 of the full-length protein; Cloned into pET28b(+) with an N-terminal hexahistidine and sumo tag; The tag was cut off by Ulp1 and removed on a second Ni-NTA column; source: E. coli BL21 (DE3), purified (Ni-NTA, Ulp1 cleavage, second Ni-NTA, Superdex G200); not shown: His6, N-terminal, cleaved; SUMO, N-terminal, cleaved
T1 sequence (looked up): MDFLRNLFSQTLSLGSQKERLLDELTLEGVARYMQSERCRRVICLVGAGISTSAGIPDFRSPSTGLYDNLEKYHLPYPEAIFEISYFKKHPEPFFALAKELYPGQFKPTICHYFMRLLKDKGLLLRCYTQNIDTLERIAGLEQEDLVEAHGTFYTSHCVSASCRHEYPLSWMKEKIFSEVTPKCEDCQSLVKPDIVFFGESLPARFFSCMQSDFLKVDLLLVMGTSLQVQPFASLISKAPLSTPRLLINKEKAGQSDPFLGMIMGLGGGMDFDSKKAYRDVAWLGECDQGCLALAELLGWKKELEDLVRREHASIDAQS

- Km of demyristoylation of the H3K9 myristoyl peptide by SIRT2 (HPLC kinetics, 0.2 μM SIRT2, 1 mM NAD, 37°C, peptide 0.25-32 μM) [1]: 0.24 µM
Molecule: H3K9 myristoyl peptide (histone H3 Lys9 peptide bearing a myristoyl group)

- binding result [2]: binds
B1: BHJH-TM1 thiomyristoyl peptide (PKK(TMy)TG) (peptide)
peptide: PKK(thiomyristoyl)TG
notes: also called Myr Peptide (PKK(Tmy)TG)
